Positions count from the first letter of the chain named.
How the values were obtained:
[1] = target: 猕猴IL-13Rα1 (转染的Ba/F3细胞) (猕猴 (Cyno)); assay: FACS on Ba/F3 cells transfected with cynomolgus IL-13Rα1, secondary antibody alone
[2] = target: 猕猴IL-13Rα1 (转染的Ba/F3细胞) (猕猴 (Cyno)); assay: FACS, transfected against parental Ba/F3 cells, secondary antibody alone
[3] = target: IL-13Rα1 (人B细胞、单核细胞、TF-1细胞、HFL-1细胞、支气管平滑肌细胞上) (human) (UniProt P78552); assay: cell-based or functional assay
[4] = target: 人IL-13Rα1 (表达人IL-13Rα1和人IL-4Rα的CHO细胞) (human) (UniProt P78552); assay: displacement of 125I-IL-13 from CHO cells expressing human IL-13Rα1 and IL-4Rα
[5] = target: 猕猴IL-13Rα1 (转染的Ba/F3细胞) (猕猴 (Cyno)); assay: FACS, transfected against parental Ba/F3 cells
[6] = target: 猕猴IL-13Rα1 (转染的Ba/F3细胞) (猕猴 (Cyno)); assay: FACS on Ba/F3 cells transfected with cynomolgus IL-13Rα1
[7] = target: 猕猴IL-13Rα1 (转染的Ba/F3细胞) (猕猴 (Cyno)); assay: FACS on Ba/F3 cells transfected with cynomolgus IL-13Rα1, negative control
[8] = target: 猕猴IL-13Rα1 (转染的Ba/F3细胞) (猕猴 (Cyno)); assay: FACS, transfected against parental Ba/F3 cells, negative control
[9] = target: 猕猴IL-13Rα1 (转染的Ba/F3细胞) (猕猴 (Cyno)); assay: FACS on Ba/F3 cells transfected with cynomolgus IL-13Rα1, 10 μg/ml antibody
[10] = target: T1, IL-13Rα1 (人B细胞、单核细胞、TF-1细胞、HFL-1细胞、支气管平滑肌细胞上) (human, UniProt P78552 22-427); assay: cell-based or functional assay
T1 sequence (looked up): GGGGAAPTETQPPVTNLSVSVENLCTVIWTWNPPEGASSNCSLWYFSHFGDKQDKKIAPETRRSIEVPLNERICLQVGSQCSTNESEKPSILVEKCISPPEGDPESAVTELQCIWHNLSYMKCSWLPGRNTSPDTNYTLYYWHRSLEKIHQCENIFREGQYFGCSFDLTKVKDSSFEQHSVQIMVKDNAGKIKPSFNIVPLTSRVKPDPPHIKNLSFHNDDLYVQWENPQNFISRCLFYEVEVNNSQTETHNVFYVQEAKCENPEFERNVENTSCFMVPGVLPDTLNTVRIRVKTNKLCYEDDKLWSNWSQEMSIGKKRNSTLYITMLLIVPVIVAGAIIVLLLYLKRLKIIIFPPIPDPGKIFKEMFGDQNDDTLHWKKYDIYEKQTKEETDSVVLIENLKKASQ

[11] = target: T2, 从hIL-13Rα1:hFc嵌合蛋白切割的hIL-13Rα1的细胞外结构域 (human, UniProt P78552 22-343); assay: SPR Biacore 3000, C1 chip, antibody captured by anti-hFcγ, cleaved hIL-13Rα1 ECD as analyte, 1:1 Langmuir
T2 construct: extracellular domain; also called 切割的hIL-13Rα1分子
T2 sequence (looked up): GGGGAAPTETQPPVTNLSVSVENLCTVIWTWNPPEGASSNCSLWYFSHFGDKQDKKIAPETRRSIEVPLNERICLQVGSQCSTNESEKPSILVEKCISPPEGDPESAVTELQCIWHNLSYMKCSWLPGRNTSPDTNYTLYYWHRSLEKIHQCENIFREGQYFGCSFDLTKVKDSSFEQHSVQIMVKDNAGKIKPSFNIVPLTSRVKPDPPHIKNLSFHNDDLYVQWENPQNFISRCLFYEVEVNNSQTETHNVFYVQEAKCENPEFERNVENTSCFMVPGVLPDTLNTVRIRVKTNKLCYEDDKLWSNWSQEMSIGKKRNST

[12] = target: 猕猴IL-13Rα1 (转染的Ba/F3细胞) (猕猴 (Cyno)); assay: FACS, transfected against parental Ba/F3 cells; remark: listed apart in the source
[13] = target: 猕猴IL-13Rα1 (转染的Ba/F3细胞) (猕猴 (Cyno)); assay: FACS on Ba/F3 cells transfected with cynomolgus IL-13Rα1, 10 μg/ml antibody; remark: listed apart in the source

## 仅抗人IgG-FITC (antibody)
[1]
  MFIBa/F3 Cyno IL-13Rα1: 5.5 MFI
[2]
  在Cyno IL-13Rα1存在下MFI的增加倍数: 2.2

## 多克隆山羊抗人IL-13Rα1抗体AF152(R&D Systems) (antibody)
[3]
  B淋巴细胞上CD23上调的抑制 IC50: 13.6 nM
  IL-4诱导的增殖的IC50: 74.4 nM
  IL-13诱导的Stat-6磷酸化的抑制 IC50: 18.6 nM
  IL-13诱导的TF-1细胞增殖的抑制 IC50: 13.5 nM
  人单核细胞上IL-13诱导的CD23上调的抑制 IC50: 62.9 nM
  抑制嗜曙红粒细胞趋化因子释放 平均IC50: 11.5 nM
[4]
  IC50: 84.8 nM
[5]
  在Cyno IL-13Rα1存在下MFI的增加倍数: 18
[6]
  MFIBa/F3 Cyno IL-13Rα1: 21.2 MFI

## 正常人IgG1(Nordic) (antibody)
[7]
  MFIBa/F3 Cyno IL-13Rα1: 10.2 MFI
[8]
  在Cyno IL-13Rα1存在下MFI的增加倍数: 6.7

## 正常山羊IgG (antibody)
[7]
  MFIBa/F3 Cyno IL-13Rα1: 5.7 MFI
[8]
  在Cyno IL-13Rα1存在下MFI的增加倍数: 2.4

B1: HuMab LC5002-002 (antibody, human IgG1, V domains shown)
VH: EVQLLESGGGLVQPGGSLRLSCAASGFTFNIYAMNWVRQAPGKGLEWVVISGRGITTYYADSVKGRFTISRDNSKNTLYLQMNSLRADDTAVYYCAKGSSSWTDFDYWGQGTLVTVSS
VL: DIQMTQSPSSLSASVGDRVTITCRASQGISRWVAWYQQKPEKAPKSLIYAASSLQSGVPSRFSGSGSGTDFTLTISSLQPEDFATYYCQQYNSYPWTFGQGTKVEIK
notes: Human IgG1 kappa antibody from a HuMab mouse hybridoma; also called hu-MAB<h-IL-13Ralpha>LC.5002-002 (DSM ACC2709)
[9]
  MFIBa/F3 Cyno IL-13Rα1: 83.7 MFI
[10]
  IL-13诱导的TF-1细胞增殖的抑制 IC50: 9.21 nM
[11]
  Kd: 0.62 nM
  koff: 0.00065 s⁻¹
  kon: 1.1e+06 M⁻¹ s⁻¹
[12]
  在Cyno IL-13Rα1存在下MFI的增加倍数: 79.8

B2: HuMab LC5002-003 (antibody, V domains shown)
VH: EVQLLESGGDLIQPGGSLRLSCAASGFTFNIYAMNWVRQAPGKGLEWVSVISGRGITTYYADSVKGRFTISRDNSKNTLYLQMDSLRAEDTAVYYCAKGSSYWTDFDYWGQGTLVTVSS
VL: B1 VL with R31S, V33L
[5]
  在Cyno IL-13Rα1存在下MFI的增加倍数: 79
[10]
  IL-13诱导的Stat-6磷酸化的抑制 IC50: 5.98 nM
  IL-13诱导的TF-1细胞增殖的抑制 IC50: 3.07 nM
[13]
  MFIBa/F3 Cyno IL-13Rα1: 82.4 MFI

Source: CN101098892A (HOFFMANN LA ROCHE, dated 2008)
